Test results published in US20240035010, “COMPOSITIONS COMPRISING A VARIANT POLYPEPTIDE AND USES THEREOF” (Arbor Biotechnologies, Inc., published 2024).

Assays:
[1] = biological target: T1, variant nuclease 7 substitutions D590G/E154G/E736G (P14R, D32R, I61R, E311R, D590G, E154G, E736G); experiment: cell_activity; PAM 5'-TTTG-3'; details: tags: pcDNA3.1 expression
T1 chain: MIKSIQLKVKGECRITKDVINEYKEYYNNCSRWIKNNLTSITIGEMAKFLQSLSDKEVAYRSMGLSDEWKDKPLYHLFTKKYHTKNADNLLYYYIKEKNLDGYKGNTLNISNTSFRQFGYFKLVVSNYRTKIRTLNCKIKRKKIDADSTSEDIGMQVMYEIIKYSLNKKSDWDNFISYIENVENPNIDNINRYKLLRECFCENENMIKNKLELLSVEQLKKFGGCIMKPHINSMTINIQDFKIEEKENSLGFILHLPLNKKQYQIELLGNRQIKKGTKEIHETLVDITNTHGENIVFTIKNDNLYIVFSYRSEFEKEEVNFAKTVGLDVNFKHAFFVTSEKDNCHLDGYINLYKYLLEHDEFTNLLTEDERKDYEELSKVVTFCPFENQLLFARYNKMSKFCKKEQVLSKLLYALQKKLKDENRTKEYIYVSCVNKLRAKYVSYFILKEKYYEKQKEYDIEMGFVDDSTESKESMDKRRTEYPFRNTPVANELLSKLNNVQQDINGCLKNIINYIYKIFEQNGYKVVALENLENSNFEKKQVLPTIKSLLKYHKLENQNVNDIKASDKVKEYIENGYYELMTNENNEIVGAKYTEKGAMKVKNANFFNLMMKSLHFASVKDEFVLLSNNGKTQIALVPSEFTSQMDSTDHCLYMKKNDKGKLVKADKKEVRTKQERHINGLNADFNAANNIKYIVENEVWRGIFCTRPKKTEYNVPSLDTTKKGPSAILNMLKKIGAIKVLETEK
Experimental: (§1) Approximately 16 hours prior to transfection, 25,000 HEK293T cells in DMEM/10% FBS+Pen/Strep (D10 media) were plated into each well of a 96-well plate. On the day of transfection, the cells were 70-90% confluent. For each well to be transfected, a mixture of Lipofectamine 2000™ and Opti-MEM™ was prepared and incubated at room temperature for 5 minutes (Solution 1). After incubation, the Lipofectamine 2000™:Opti-MEM™ mixture was added to a separate mixture containing nuclease plasmid, RNA guide plasmid, and Opti-MEM™ (Solution 2). In the case of negative controls, the RNA guide plasmid was not included in Solution 2. Solutions 1 and 2 were mixed by pipetting up and down, then incubated at room temperature for 25 minutes. Following incubation, the Solution 1 and 2 mixture was added dropwise to each well of a 96-well plate containing the cells. Approximately 72 hours post transfection, cells were trypsinized by adding TrypLE™ to the center of each well and incubating at 37° C. for approximately 5 minutes. D10 media was then added to each well and mixed to resuspend cells. The resuspended cells were centrifuged at 500 g for 10 minutes to obtain a pellet, and the supernatant was discarded. The cell pellet was then resuspended in QuickExtract™ buffer (Lucigen®), and cells were incubated at 65° C. for 15 minutes, 68° C. for 15 minutes, and 98° C. for 10 minutes.
(§2) This Example describes assessment of indel activity at multiple target sites using the wild-type polypeptide of SEQ ID NO: 3 or variant polypeptides of Table 4. The variant polypeptides were cloned into a pcDNA3.1 backbone (Invitrogen), and the cells were transfected as described in Example 7.
(§3) The percentage of NGS reads containing indels (% indels) were calculated. For each variant polypeptide and target, % indels were averaged across two bioreplicates and two technical replicates. These values were then compared to % indels of the wild-type polypeptide of SEQ ID NO: 3.

[2] = biological target: T2, variant nuclease L38G combination (P14R, D32R, I61R, E311R, L38G); experiment: cell_activity; PAM 5'-TTTG-3'; details: tags: pcDNA3.1 expression
T2 chain: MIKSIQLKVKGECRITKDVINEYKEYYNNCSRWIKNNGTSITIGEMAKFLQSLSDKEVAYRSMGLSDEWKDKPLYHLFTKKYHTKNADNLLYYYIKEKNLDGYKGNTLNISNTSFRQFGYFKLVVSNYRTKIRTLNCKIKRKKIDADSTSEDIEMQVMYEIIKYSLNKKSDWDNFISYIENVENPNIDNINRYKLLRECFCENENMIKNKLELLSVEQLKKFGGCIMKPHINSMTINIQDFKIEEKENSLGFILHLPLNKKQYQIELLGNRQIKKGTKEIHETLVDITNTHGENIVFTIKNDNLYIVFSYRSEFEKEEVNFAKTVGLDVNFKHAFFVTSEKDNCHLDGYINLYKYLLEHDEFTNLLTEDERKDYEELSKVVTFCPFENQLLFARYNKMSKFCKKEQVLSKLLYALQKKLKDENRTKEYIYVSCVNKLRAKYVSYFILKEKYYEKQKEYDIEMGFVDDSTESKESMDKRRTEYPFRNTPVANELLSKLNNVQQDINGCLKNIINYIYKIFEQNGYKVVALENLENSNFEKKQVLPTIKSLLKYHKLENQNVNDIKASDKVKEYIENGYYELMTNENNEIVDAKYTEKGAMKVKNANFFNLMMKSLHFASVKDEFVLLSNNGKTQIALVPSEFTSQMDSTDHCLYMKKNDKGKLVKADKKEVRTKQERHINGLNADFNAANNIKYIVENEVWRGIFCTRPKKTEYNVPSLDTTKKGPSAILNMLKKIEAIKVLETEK
Experimental: as §1, §2, §3

B1: AAVS1 crRNA ; AAVS1 target (ssRNA ; dsDNA)
RNA: CUUGUUGUAUAUGUCCUUUUAUAGGUAUUAAACAACUGAGAAUGGUGCGUCCUAGG
DNA 1: TGAGAATGGTGCGTCCTAGG
DNA 2: CCTAGGACGCACCATTCTCA
[1]
  indel activity: 5.91 fold of WT
[2]
  indel activity: 1.28 fold of WT
